# Data taken from PMC7938805, “Biophysical and biochemical properties of Deup1 self-assemblies: a potential driver for deuterosome formation during multiciliogenesis” (Biology Open, 2021).
# B1: mScarlet I-Deup1 (deuterosome protein 1, mouse, longer isoform) (natural protein, UniProt Q7M6Y5-1 1-601, looked up)
# chain: MENQAHTTAGASPCEAELQELMEQIDIMVSNKKLDWERKMRALETRLDLRDQELANAQTCLDQKGQEVGLLRQKLDSLEKCNLVMTQNYEGQLQTLKAQFSKLTSNFEKLRLHQMKQNQIHRKESSSKEELPFELSSLNQKLEEFRAKSREWDKQEVLYQTHLVSLDAQQKLLSEKCSQFQKQAQNYQTQLNGKKQCAEDSSSEIPRLVCESDPGCEATQRDEFIIEKLKSAVSEIALSRNKLQDENQKLLQELKMYQRQCQAMEAGLSEVKSELQSRDDLLRIIEMERLHLHRELLRMGEVQTAQDNRKRVESSYSPSPKEAERKRKELFPMVSDQPNHEKELSKMRSQLYQEEGLCSEQERLRSEISELTQELHQKEVTIATVMKKAALLERQLKIELEIKERMLAKQQVSDRRYKAVRTENTHLKGMMGDLDPARYLAVDLSNKKHSQCTSINKLEYENERLRSDLAKLHGNGKAAWPNQSSYGEAGAYVFQSQLKTETSGDRISQDCELNRSPTPLSPLPFQTKEMASPLVGDNEVLALSPPDISFRASLAAQHFLMEEERRAKELEKLLNTHIDELQRHTEFTLNKYTKLKQSRHI
# notes: Deuterosome protein 1 (Deup1), mouse, longer isoform NP_001360846, cloned from a mouse lung cDNA library with primers from the start to the stop codon; 601 residues by the fragment limits; Expressed from pGEX 6p-1 modified with a C-terminal 6xHis tag and a TEV site; also called mS-Deup1; full-length Deup1; source: E. coli BL21 gold (DE3), purified (Ni-NTA, glutathione sepharose, eluted with …)
# B2: mScarlet I-Deup1 N-terminus fragment (1-466 a.a.) (domain or fragment, mouse, UniProt Q7M6Y5-1 1-466, looked up)
# chain: MENQAHTTAGASPCEAELQELMEQIDIMVSNKKLDWERKMRALETRLDLRDQELANAQTCLDQKGQEVGLLRQKLDSLEKCNLVMTQNYEGQLQTLKAQFSKLTSNFEKLRLHQMKQNQIHRKESSSKEELPFELSSLNQKLEEFRAKSREWDKQEVLYQTHLVSLDAQQKLLSEKCSQFQKQAQNYQTQLNGKKQCAEDSSSEIPRLVCESDPGCEATQRDEFIIEKLKSAVSEIALSRNKLQDENQKLLQELKMYQRQCQAMEAGLSEVKSELQSRDDLLRIIEMERLHLHRELLRMGEVQTAQDNRKRVESSYSPSPKEAERKRKELFPMVSDQPNHEKELSKMRSQLYQEEGLCSEQERLRSEISELTQELHQKEVTIATVMKKAALLERQLKIELEIKERMLAKQQVSDRRYKAVRTENTHLKGMMGDLDPARYLAVDLSNKKHSQCTSINKLEYENERLR
# notes: Deuterosome protein 1 (Deup1), mouse, longer isoform NP_001360846, residues 1-466, with multiple coiled coil domains; source: E. coli BL21 gold (DE3), purified (Ni-NTA, glutathione sepharose, eluted with PreScission and TEV protease); not shown: GST, N-terminal, cleaved; mScarlet I, N-terminal, kept; His6, C-terminal, cleaved
# Molecular target: the molecule itself
# Test: fluorescence microscopy of assemblies of purified protein; purified fluorescent protein (100 nM where stated) in 50 mM Tris pH 7.5, 150 mM NaCl, 1.5% glycerol with PEG8000 (up to 6%) or BSA 300 mg/ml as crowding agent, RT 10 min, confocal imaging
row,Protein,binding result
1,B1,binds
2,B2,binds
